T1: Cyno TIM-3 (cynomolgus monkey, UniProt A0A2K5U3G7 22-294)
T1 construct: The construct used for BIACORE is not described; also called cynomolgus monkey TIM-3
T1 sequence: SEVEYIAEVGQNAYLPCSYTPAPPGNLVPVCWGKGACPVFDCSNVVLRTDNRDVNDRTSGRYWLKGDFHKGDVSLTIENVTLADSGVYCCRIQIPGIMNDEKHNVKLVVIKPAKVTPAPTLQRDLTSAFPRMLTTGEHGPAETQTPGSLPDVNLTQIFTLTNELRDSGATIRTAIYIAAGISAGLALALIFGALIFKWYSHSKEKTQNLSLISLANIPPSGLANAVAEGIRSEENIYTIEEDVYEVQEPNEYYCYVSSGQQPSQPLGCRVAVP

T2: Human TIM-3 (human, UniProt Q8TDQ0 22-200, limits assumed)
T2 construct: The construct used for BIACORE is not described; also called T Cell Immunoglobulin and Mucin Protein 3; HAVCR2
T2 sequence (looked up): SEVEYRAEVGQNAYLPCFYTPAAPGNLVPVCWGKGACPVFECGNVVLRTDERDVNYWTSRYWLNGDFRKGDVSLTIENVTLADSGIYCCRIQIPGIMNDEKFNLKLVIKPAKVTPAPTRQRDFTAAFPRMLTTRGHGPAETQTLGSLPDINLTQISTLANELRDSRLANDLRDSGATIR


What was measured:
Cyno TIM-3 = biological target: T1, Cyno TIM-3; experiment: BIACORE (SPR)
Human TIM-3 = biological target: T2, Human TIM-3; experiment: BIACORE (SPR)

Kd (Cyno TIM-3)	Kd (Human TIM-3)	Binder
1.5 nM	< 0.05 nM	APE5121 (antibody, V domains shown, also called Back-Up Antibody) VH: EVQVLESGGGLVQPGGSLRLYCVASGFTFSGSYAMSWVRQAPGKGLEWVSAISGSGGSTYYADSVKGRFTISRDNSKNTLYLQMNSLRAEDTAVYYCAKKYYVGPADYWGQGTLVTVSS VL: not shown
0.19 nM	0.05 nM	APE5137 (antibody, V domains shown, also called Lead Antibody; lead anti-TIM-3 antibody) VH: EVQLLESGGGLVQPGGSLRLSCAAASGFTFSSYDMSWVRQAPGKGLDWVSTISGGGTYTYYQDSVKGRFTISRDNSKNTLYLQMNSLRAEDTAVYYCASMDYWGQGTTVTVSS VL: DIQMTQSPSSLSASVGDRVTITCRASQSIRRYLNWYHQKPGKAPKLLIYGASTLQSGVPSRFSGSGSGTDFTLTISSLQPEDFAVYYCQQSHSAPLTFGGGTKVEIKR
